pKd: −log10 of the molar value.
How the values were obtained:
[1] = target: α5β1 integrin protein, covalently immobilised on the optical biosensor cuvette; assay: optical biosensor (IAsys), α5β1 immobilised
[2] = target: α5β1 integrin protein, covalently immobilised on the optical biosensor cuvette; assay: optical biosensor (IAsys), α5β1 immobilised, D3904A DV free in solution
[3] = target: α5β1 integrin protein, covalently immobilised on the optical biosensor cuvette; assay: optical biosensor (IAsys), α5β1 immobilised, D3904A DV free in solution; Kd from Koff/Kon
[4] = target: α5β1 integrin protein, covalently immobilised on the optical biosensor cuvette; assay: optical biosensor (IAsys), α5β1 immobilised, LG3 free in solution
[5] = target: α5β1 integrin protein, covalently immobilised on the optical biosensor cuvette; assay: optical biosensor (IAsys), α5β1 immobilised, LG3 free in solution; Kd from Koff/Kon

affinity relative to non-mutated DV (fold of the affinity of non-mutated DV) [1] | koff [2] | pKd [3] | koff [4] | pKd [5] | Substance
< 0.5 | 0.22 s⁻¹ | 6.43 |  |  | D3904A DV (perlecan Domain V with DGR mutated to AGR), C-terminal 6×His tag (from UniProt P98160 3687-4391) (ligand)
 |  |  | 1.7 s⁻¹ | 3.00 | LG3, the C-terminal fragment of perlecan Domain V, with C-terminal 6×His tag (from UniProt P98160 4197-4391) (ligand)

— US20120003180A1
